Where a chain is given by its changes, count along the chain named.

For one molecule, binding signal results are on record in patent publication US20260009052, “CAS12 PROTEINS AND USES THEREOF” (GUANGZHOU REFORGENE MEDICINE CO., LTD., published 2026).

The target in one data set is T1, C12-279 Mut-03 (synthetic construct, G184R,Q186R,D352R).
T1 chain: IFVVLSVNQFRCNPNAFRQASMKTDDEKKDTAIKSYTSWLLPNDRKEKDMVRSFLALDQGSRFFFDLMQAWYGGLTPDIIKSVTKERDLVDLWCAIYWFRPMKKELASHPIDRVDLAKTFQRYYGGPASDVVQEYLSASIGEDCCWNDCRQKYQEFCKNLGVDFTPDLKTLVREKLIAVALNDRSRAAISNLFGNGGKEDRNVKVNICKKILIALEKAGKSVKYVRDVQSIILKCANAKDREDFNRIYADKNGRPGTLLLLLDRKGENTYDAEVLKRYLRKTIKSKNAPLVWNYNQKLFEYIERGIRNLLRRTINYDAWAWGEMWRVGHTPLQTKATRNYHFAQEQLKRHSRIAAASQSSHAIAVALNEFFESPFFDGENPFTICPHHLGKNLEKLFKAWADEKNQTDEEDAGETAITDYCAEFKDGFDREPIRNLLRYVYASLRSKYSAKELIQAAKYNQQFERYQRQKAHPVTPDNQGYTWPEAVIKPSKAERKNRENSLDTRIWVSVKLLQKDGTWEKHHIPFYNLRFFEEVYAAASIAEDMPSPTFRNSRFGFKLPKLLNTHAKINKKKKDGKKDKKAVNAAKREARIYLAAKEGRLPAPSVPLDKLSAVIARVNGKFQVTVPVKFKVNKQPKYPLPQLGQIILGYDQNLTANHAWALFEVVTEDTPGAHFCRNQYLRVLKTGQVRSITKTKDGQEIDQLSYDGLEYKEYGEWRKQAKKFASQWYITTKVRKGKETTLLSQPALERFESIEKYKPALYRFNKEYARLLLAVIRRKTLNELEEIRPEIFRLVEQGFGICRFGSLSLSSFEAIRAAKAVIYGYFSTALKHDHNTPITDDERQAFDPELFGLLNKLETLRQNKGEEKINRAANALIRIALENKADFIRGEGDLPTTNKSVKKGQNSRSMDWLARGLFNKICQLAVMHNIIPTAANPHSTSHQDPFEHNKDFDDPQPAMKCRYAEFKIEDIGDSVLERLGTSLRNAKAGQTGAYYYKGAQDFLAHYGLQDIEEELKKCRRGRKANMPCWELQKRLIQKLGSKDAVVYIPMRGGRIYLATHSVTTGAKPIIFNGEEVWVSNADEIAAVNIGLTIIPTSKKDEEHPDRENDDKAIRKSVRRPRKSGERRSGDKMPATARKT
Nature of the data set: cell_activity; PAM TTG. The protocol: Transfection: transfection was performed 12-14 h after plating. 1.5 μL PEI (Yeasen Biotechnology, 40815ES03, Polyethylenimine Linear (PEI) MW25000) and 500 ng mutation clone plasmid were added to 100 μL Opti-MEM per well of the 24-well plate, mixed, and added to the NAAN cell line for cell transfection after placing at room temperature for 20 min. After overnight transfection, a fresh culture medium was replaced, and the culture was continued for 72 h, followed by flow cytometry. Editing efficiencies of different mutant clones were characterized by the proportion of GFP-positive cells.
Editing efficiency of some selected mutants was tested in Reporter3 cell line using the same manner as described for the NAAN reporter system, except that the cell line was changed from NAAN cell line to Reporter3 cell line.

Data set [1] concerns the target T2, C12-279 Mut-02-1-5-426-858-860 (synthetic construct, I1R,L5R,Q186R,D352R,D426R,858R,L860R).
T2 chain: T1 chain with I1R, L5R, R184G, D426R, E858R, L860R
In words: cell_activity; PAM TTG.

B1: C12-279 Reporter3 sgRNA ; Reporter3 target (ssRNA ; dsDNA)
RNA: GUAAUGCGUCUCCCAUUGACGCCUCACCUCGCGACGCAAUGAUG
DNA 1: CTCACCTCGCGACGCAATGATG
DNA 2: CATCATTGCGTCGCGAGGTGAG
With B1, the binding signal with C12-279 Mut-03 is 2.28 fold of C12-279; in data set [1], 3.77 fold of C12-279.
